The values that follow come from paper PMC3142112, “Rationally Designed Turn Promoting Mutation in the Amyloid-β Peptide Sequence Stabilizes Oligomers in Solution” (PLoS ONE, 2011).

Common to all, as to format: physicochemical
Series [1] in a line: One-dimensional 1H NMR of peptide preparations (soluble versus aggregated state). As to conditions: 10% DMSO/PBS.
Method: All peptides were used as supplied. Solution samples of the peptides were prepared as follows. Peptides were dissolved in 1,1,1,3,3,3-hexafluoro-2-propanol (HFIP) to concentrations of 1 mM HFIP, evaporated over nitrogen, and then dried in a Savant Speed Vac for 1 hr. The resultant peptide films were further kept under vacuum for a few hours to remove solvent traces. The films were stored at −80°C until use. Peptide films were dissolved to ∼0.5 mM concentrations in 10% d6-DMSO/10 mM PBS buffer to a final pH of 7.2. The solutions were incubated at 4°C for 12 hours, and then transferred to 37°C for 4 hours. The resulting solutions were centrifuged at 13000 rpm in a desktop centrifuge (Eppendorf) at 4°C for 30 min to remove any precipitated gel-form of the peptides. After centrifugation, the peptide concentrations were adjusted to 0.4 mM (concentrations were checked by UV visible spectroscopy), 0.05% sodium azide added as a bacteriostat and transferred to 5 mm NMR tubes. […]
NMR spectra were acquired at the Stanford Magnetic Resonance Laboratory on a Bruker Avance 500 MHz spectrometer running TopSpin v1.3 and equipped with a 5 mm H{CN} Z-axis gradient CryoProbe. […] The data was processed in TopSpin and analyzed with SPARKY [38].
Series [2] is described as follows: Circular dichroism spectroscopy (conformation / fibril development). The method, then: Conformational analyses of the mutant and Aβ42WT peptides were also carried out by Circular Dichroism (CD) spectroscopy.
The fibrils from the Aβ42WT preparation were centrifuged at 12000 rpm for 15 min to separate from any remaining monomer and the pellet was re-suspended in 10 mM phosphate pH 7.2 for CD measurement. CD measurements were performed using a 0.1 mm path length quartz cell in an Aviv 62A DS Circular Dichroism spectrometer (Aviv Associates, Lakewood, NJ) at 22°C.
(§1) The thioflavin T (ThT) binding studies of Aβ42WT and mutant peptides were carried out by incubating precipitated fibrils of the Aβ42WT or eluted oligomer preparation from the SEC column. The 25 µM amyloid fibrils (Aβ42WT) or oligomers of mutant were mixed with 5 µM of ThT dye concentration. After 2 h incubation, the fluorescence of the sample solutions were recorded by exciting at 440 nm and the intensity at 480 nm is monitored using Perkin-Elmer LC 55B spectrofluorimeter. The bandwidths of excitation/emission wavelengths were 5 nm/each.

Series [3] in a line: Atomic force microscopy of peptide preparations. As to conditions: 25 µM peptide adsorbed 10 min onto silicon wafers, tapping mode.
Method: High-resolution analysis of the peptide solution preparations were carried out using atomic force microscopy (AFM).
AFM topography images were acquired in the light tapping mode regime using a Multimode AFM (Veeco, USA). Resonant frequencies of the uncoated silicon tips (MikroMasch, USA) were roughly 150 kHz, with scan rates around 5–8 µm/s. Peptide samples were prepared using the protocol described above and diluted to 25 µM before application. Peptide solutions were adsorbed by incubating onto Pirahna cleaned silicon wafers with molecular smoothness (∼1 Å RMS roughness) as determined by AFM. After incubating for 10 min, the wafers are gently washed repeatededly with MilliQ water.
The nature of series [4]: Thioflavin T fluorescence (aggregation / mature fibril formation). The settings on record: 25 µM fibrils (Aβ42WT) or SEC-eluted mutant oligomers, 5 µM ThT, 2 h incubation, excitation 440 nm, emission 480 nm, 25°C. The method, then:
Thioflavin T fluorescence was used to assess aggregation and mature fibril formation as β-sheet content is directly correlated with fluorescence intensity of the dye.
as §1, with “Mean residue ellipticity (θ) was determined according to the equation θ = θObs • MRW/(10 • l • c); where θObs is observed ellipticity, MRW is mean residue weight of the peptide, c is peptide concentration (g/L), and l is optical path length (cm). The thioflavin” for “The thioflavin”

For the substance “Aβ42WT: wild type form of Aβ42, recombinant purified, unlabeled and 15N-labeled, from rPeptide”, the “species formed in preparation” value in series [1] (0.4 mM) is given as “formed fibrils”. For the same substance, the “state in solution by 1D 1H NMR (amide/aromatic region)” value in series [1] (pH 7.2, 25°C, samples prepared in the same manner) was “very little observable signal”. Besides, the “conformation by CD spectrum” value in series [2] (0.1 mm path length cell, WT fibril pellet in 10 mM phosphate pH 7.2, mutant SEC-eluted) is “β-sheet rich, mature fibrils”. Further, the “period over which aggregate develops into β-sheet rich, mature fibrils (CD)” value in series [2] (PBS buffer, absorbance at ∼220 nm) worked out at 12 h. The “mean globular structure height (AFM)” value in series [3] came out at 4.32 nm. Further, the “Thioflavin T fluorescence of Aβ42WT compared to Aβ42Nle35p37” value in series [4] is “about four”.
